Source: patent US20190040143A1

Target: human HER3 on human cancer cell lines (human) (UniProt P21860)
Test: cell-based or functional assay

maximal extent of pHER3 suppression, Kato III cells: 60%
potency in pHER3 ELISA, HCC827 cells, against 2C2 (fold less potent): 10
Substance: U1-59 anti-HER3 monoclonal antibody (International Patent Publication WO 2007077028)
